Test results from the Human Domainome abundance scans (Beltran et al. 2025).

B1: Gamma-crystallin C, residues 4 to 79; numbered along this chain, P07315 (parent)
chain: ITFYEDRAFQGRSYETTTDCPNLQPYFSRCNSIRVESGCWMLYERPNYQGQQYLLRRGEYPDYQQWMGLSDSIRSC

Variants of: B1
Experiment: abundance fitness (aPCA) (normalised: wild type 0, dead -1); higher = more abundant; growth selection in yeast, the domain comes from the species named
Conditions: Homo sapiens

Abundance fitness of substitutions, site by site:
R12: F 0.026; C -0.063; L -0.034; K 0.031; Y -0.022; V -0.039; A -0.058; M -0.043; E 0.066; T 0.024; I 0.017; P -0.053; S -0.033; Q 0.022
T17: I -0.227; C 0.054; N -0.24; D -0.135; Q 0.048; K -0.119; F -0.152; M -0.124; V -0.006; E 0.046; S -0.061; W -0.092; R 0.034; P -0.01; L -0.089; A -0.014
F27: H -0.096; L -0.09; C -0.203; N -0.315; K -0.658; G -0.186; T 0.079; Y -0.468; I -0.144; P -0.865; D -1.02; M 0.064; E -0.794; R -0.269; A 0.124; S -0.109
L23: A -0.173; V 0.005; M 0.027; R -1.01; W -0.771; Q -0.959; T -0.081; S -0.39; E -0.617; I -0.059; N -0.676; G -0.727
S13: I 0.028; D -0.122; M -0.075; Q 0.061; H -0.025; V 0.058; T -0.043; Y -0.271; G -0.024; K 0.148; F -0.16; C -0.058; E -0.104; R 0.03; A -0.051; L -0.157
N22: Y 0.079; K 0.064; R 0.016; W -0.19; D -0.004; E -0.1; L 0.036; A -0.041; S 0.012; H -0.176; G -0.158; Q -0.046; C -0.123; T 0.097; F 0.17; V 0.026
Q24: F -0.14; G 0.027; L 0.116; W 0.034; P -0.308; C -0.131; S 0; A -0.109; I -0.056; D 0.13; V 0.006; E 0.125; R 0.007; Y 0.011; K -0.048
C30: T -0.176; P -0.079; Y -0.472; W -0.58; L -0.299; F -0.176; S 0.03; E -0.95; R -0.768; I -0.1; G -0.582; Q -0.713
R29: W -0.053; Y 0.024; A 0.085; F 0.103; V -0.009; S 0.059; Q -0.117; M 0.096; T 0.101; E -0.021; D -0.239
T16: I -0.098; C 0.003; G -0.089; D -0.215; R -0.078; E -0.291; M 0.074; Y 0.202; W 0.012; Q 0.027; P -0.342; H 0.007; F 0.084; A 0.074; V 0.031; N -0.116; K -0.011; L 0.013; S -0.034
S32: P -0.857; I -0.805; F -1.09; A -0.101; R -1.07; K -0.953; L -0.985; D -0.812; G -0.424; Q -0.916; H -0.642; W -0.889
G11: M -0.504; R -0.155; E -0.321; C -0.299; L -0.41; H -0.49; S -0.142; Q -0.421; Y -0.591; V -0.393; F -0.919; D -0.5; W -0.955; N 0.162
Q10: W -0.159; Y -0.107
P25: D 0.323; I -0.174; F -0.076; Q -0.05; A -0.002; L 0.021; T 0.199; C 0.227; H -0.241; E 0.086; Y -0.257; M 0.005; G 0.032; N 0.048; S 0.047; V 0.054; K 0.008
S28: E 0.093; W -0.15; K 0.317; D 0.166; P -0.115; H -0.014; G 0.042; Q -0.057; C -0.117; I -0.017; N 0.058; R -0.045; Y -0.012; A -0.038; L -0.082; F 0.044; V -0.03
D19: E -0.063; C -0.052; V -0.101; I -0.011; G -0.101; H -0.074; P -0.35; L 0.042; Q -0.032; W 0.059; R -0.027; A -0.086; Y -0.187; T -0.135; M -0.037
Y14: C -0.227; P -0.922; T -0.167; L -0.101; D -0.895; I 0.003; G -0.497; N -0.154; A -0.024; F 0.114; M 0.423; W 0.112; S -0.042; V -0.216; R -0.05; Q -0.27; E -0.375; K -0.163; H -0.117
E15: M -0.013; Q 0.026; W 0.069; Y -0.057; I 0.066; D -0.064; S 0.005; G -0.072; V -0.073; P -0.072; K 0.165; A -0.113; N 0.075; H 0.066
C20: S 0.104; A 0.124; T 0.019; W -0.103; E -0.041; G -0.058; F -0.211; K -0.243; N 0.22; M 0.068; D 0.169; V -0.133; Q -0.027; L -0.042; P -0.64; Y -0.079
I33: A 0.054; E -0.676; F -0.057; C 0.074
Y26: A 0.064; T -0.186; M 0.078; S 0.045; G 0.044; V 0.046; W -0.092; K -0.047; D -0.179; E -0.138; N 0.052; F 0.033; Q -0.077; L 0.037; P -0.046; R -0.031; I 0.237; H -0.082
N31: S -0.019; A -0.576; R -0.013; L -0.294; G -0.069; V -0.052; T -0.056
T18: Q -0.333; R -0.168; N 0.049; M -0.008; W 0.017; L -0.023; K -0.065; C -0.165; F -0.014; S 0.044; E -0.02; D 0.169; G -0.006; A 0.09; P -0.847; I -0.031; V -0.03
P21: F -0.161; M 0.075; A -0.028; L -0.023; G 0.053; H -0.164; C -0.119; Q 0.016; E -0.074; S -0.19; W -0.05; K 0.016; R -0.131; N 0.112; T 0.006
